Residue numbers refer to the chain shown, from its start.
Assays:
[1] = molecular target: PD-L1 on engineered CHO-K1 artificial Antigen Presenting Cells (aAPC) (Homo sapiens (Human), UniProt Q9NZQ7 19-290); assay: cell-based or functional assay
[2] = molecular target: T1, PD-L1 on HPAC cells (pre-activated with IFNγ) (human, UniProt Q9NZQ7 19-290); assay: flow cytometry on IFNγ-activated HPAC cells (PD-L1+), anti-human IgG secondary antibody, geometric mean
T1 construct: whole, on cells; also called PD-L1 expressing HPAC cells
Description: Cells were harvested, checked for viability and counted. 200′000 cells were incubated for 15 minutes at 4° C. with increasing concentrations of the antibodies diluted in FACS buffer (PBS 2% BSA, 0.1% NaN3). Cells were washed twice with cold FACS buffer and re-incubated for further 15 minutes at 4′C with a suitable anti-human IgG secondary antibody. Cells were washed twice with cold FACS buffer and resuspended in 150 μl FACS buffer with a compatible viability marker. Binding of antibodies to living cells was measured by flow cytometry using a Cytoflex Platform (Beckman Coulter). Data was analyzed with FlowJo™ v10 software (BD Life Sciences) and dose-response binding curves were drawn using GiraphPad Prism 9 software.

cynomolgus CD28 = molecular target: T2, cynomolgus CD28 (cynomolgus, UniProt Q0PDN3 19-152); assay: Octet (printed: Octet surface plasmon resonance)
T2 construct: Recombinant form not described; also called CD28 (Cynomolgus)

human CD64 = molecular target: T3, human CD64 (human, UniProt P12314 16-288); assay: Octet (printed: Octet surface plasmon resonance), n = 1
T3 construct: also called hCD64

mouse CD16 = molecular target: T4, mouse CD16 (mouse, UniProt P08508 31-215); assay: Octet (printed: Octet surface plasmon resonance)
T4 construct: also called mCD16
T4 sequence (looked up): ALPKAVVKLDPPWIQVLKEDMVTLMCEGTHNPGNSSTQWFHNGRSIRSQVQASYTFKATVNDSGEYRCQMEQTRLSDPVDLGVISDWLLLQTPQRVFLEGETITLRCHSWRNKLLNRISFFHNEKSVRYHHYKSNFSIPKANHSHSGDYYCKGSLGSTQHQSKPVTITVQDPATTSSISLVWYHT

mouse CD32b = molecular target: T5, mouse CD32b (mouse, UniProt P08101 30-207); assay: Octet (printed: Octet surface plasmon resonance)
T5 construct: also called mCD32b
T5 sequence (looked up): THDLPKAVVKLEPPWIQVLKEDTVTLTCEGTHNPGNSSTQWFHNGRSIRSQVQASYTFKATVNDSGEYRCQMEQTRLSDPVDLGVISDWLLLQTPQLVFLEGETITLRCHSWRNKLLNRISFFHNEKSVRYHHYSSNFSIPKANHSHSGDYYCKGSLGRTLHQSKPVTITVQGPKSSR

mouse CD64 = molecular target: T6, mouse CD64 (mouse, UniProt P26151 25-297); assay: Octet (printed: Octet surface plasmon resonance)
T6 construct: also called mCD64
T6 sequence (looked up): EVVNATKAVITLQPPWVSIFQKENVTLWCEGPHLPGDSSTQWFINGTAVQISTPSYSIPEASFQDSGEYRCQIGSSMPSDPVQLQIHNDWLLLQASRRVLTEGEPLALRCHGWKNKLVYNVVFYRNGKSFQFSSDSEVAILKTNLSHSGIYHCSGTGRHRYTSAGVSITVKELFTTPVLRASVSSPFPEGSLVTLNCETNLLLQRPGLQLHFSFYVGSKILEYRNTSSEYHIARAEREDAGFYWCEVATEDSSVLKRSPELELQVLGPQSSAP

mouse CD28 = molecular target: T7, mouse CD28 (mouse, UniProt P31041 20-149, limits assumed); assay: Octet (printed: Octet surface plasmon resonance), n = 2
T7 construct: Recombinant form not described; also called CD28 (Mouse)

mouse PD-L1 = molecular target: T8, mouse PD-L1 (mouse, UniProt Q9EP73 19-238, limits assumed); assay: as above
T8 construct: Recombinant form not described; also called PD-L1 (Mouse)

human PD-L1 = molecular target: T9, human PD-L1 (human, UniProt Q9NZQ7 19-238); assay: as above
T9 construct: Recombinant form not described; also called PD-L1 (Human); B7-H1

cynomolgus PD-L1 = molecular target: T10, cynomolgus PD-L1 (cynomolgus, UniProt G7PSE7 19-238); assay: as above
T10 construct: Recombinant form not described; also called PD-L1 (Cynomolgus)

human CD28 = molecular target: T11, human CD28 (human, UniProt P10747 19-152); assay: as above
T11 construct: Recombinant form not described; also called CD28 (Human)

cynomolgus CD16 = molecular target: T12, cynomolgus CD16 (cynomolgus, UniProt Q8SPW2 17-208); assay: Octet (printed: Octet surface plasmon resonance)
T12 construct: also called cyCD16

human CD32a R167 = molecular target: T13, human CD32a R167 (human, UniProt P12318 36-218); assay: Octet (printed: Octet surface plasmon resonance)
T13 construct: Allelic variant named only as R167; also called hCD32a R167
T13 sequence (looked up): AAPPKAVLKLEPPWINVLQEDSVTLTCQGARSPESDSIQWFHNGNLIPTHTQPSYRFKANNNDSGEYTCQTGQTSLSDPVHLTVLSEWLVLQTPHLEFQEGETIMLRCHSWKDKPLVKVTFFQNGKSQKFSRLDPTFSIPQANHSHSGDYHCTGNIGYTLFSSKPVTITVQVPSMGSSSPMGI

human CD16a F158 = molecular target: T14, human CD16a F158 (human, UniProt P08637 17-208); assay: Octet (printed: Octet surface plasmon resonance)
T14 construct: Allelic variant named only as F158; also called hCD16a F158

human CD16b NA2 = molecular target: T15, human CD16b NA2 (human, UniProt O75015 17-200, limits assumed); assay: Octet (printed: Octet surface plasmon resonance)
T15 construct: also called hCD16b NA2

human CD32a H167 = molecular target: T16, human CD32a H167 (human, UniProt P12318 36-218); assay: Octet (printed: Octet surface plasmon resonance)
T16 construct: Allelic variant named only as H167; also called hCD32a H167
T16 sequence (looked up): T13 sequence (looked up) with R132H

human CD32b = molecular target: T17, human CD32b (human, UniProt P31994 43-217); assay: Octet (printed: Octet surface plasmon resonance)
T17 construct: also called hCD32b
T17 sequence (looked up): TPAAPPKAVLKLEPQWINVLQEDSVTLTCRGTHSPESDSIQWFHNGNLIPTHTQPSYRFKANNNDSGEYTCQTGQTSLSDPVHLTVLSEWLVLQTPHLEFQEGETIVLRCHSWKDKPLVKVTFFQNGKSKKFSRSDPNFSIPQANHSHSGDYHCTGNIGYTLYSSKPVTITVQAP

human CD16a V158 = molecular target: T18, human CD16a V158 (human, UniProt P08637 17-208); assay: Octet (printed: Octet surface plasmon resonance)
T18 construct: Allelic variant named only as V158; also called hCD16a V158

[3] = molecular target: T19, human neonatal Fc Receptor (FcRn) (human, UniProt P55899 24-297; P61769 21-119); assay: Octet (printed: Octet surface plasmon resonance), n = 2
T19 construct: also called FcRn (Human)

[4] = molecular target: T20, cynomolgus neonatal Fc Receptor (FcRn) (cynomolgus, UniProt Q8SPV9 24-297; Q8SPW0 21-119); assay: as above
T20 construct: also called FcRn (Cynomolgus)

[5] = molecular target: T21, mouse neonatal Fc Receptor (FcRn) (mouse, UniProt Q61559 22-297; P01887 21-119); assay: as above
T21 construct: also called FcRn (Mouse)
T21 sequence (looked up) 1: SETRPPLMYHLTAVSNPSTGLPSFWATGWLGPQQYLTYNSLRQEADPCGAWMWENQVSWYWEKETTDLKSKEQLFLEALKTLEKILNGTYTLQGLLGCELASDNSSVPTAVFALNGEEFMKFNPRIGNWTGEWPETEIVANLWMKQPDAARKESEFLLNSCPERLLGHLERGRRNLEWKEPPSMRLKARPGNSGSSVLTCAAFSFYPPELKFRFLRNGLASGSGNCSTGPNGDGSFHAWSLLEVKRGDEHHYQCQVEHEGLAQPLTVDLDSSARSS
T21 sequence (looked up) 2: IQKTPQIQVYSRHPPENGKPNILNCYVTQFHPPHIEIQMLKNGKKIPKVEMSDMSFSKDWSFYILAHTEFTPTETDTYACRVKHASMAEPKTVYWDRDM

T1 sequence (Q9NZQ7 19-290): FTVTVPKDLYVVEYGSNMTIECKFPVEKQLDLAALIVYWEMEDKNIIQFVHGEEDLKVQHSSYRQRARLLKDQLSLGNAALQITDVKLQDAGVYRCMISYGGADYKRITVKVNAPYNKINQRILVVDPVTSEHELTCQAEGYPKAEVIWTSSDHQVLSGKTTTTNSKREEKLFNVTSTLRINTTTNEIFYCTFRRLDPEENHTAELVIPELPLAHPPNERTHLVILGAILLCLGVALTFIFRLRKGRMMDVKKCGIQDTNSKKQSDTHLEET
T12 sequence (Q8SPW2 17-208 limits assumed): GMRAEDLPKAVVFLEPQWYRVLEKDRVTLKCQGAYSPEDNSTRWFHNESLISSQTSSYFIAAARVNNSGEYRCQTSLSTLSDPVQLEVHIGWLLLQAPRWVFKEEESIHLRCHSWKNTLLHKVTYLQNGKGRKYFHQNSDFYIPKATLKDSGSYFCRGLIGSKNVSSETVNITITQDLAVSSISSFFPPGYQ
T19 sequence (P55899 24-297 limits assumed, chain 1 of 2): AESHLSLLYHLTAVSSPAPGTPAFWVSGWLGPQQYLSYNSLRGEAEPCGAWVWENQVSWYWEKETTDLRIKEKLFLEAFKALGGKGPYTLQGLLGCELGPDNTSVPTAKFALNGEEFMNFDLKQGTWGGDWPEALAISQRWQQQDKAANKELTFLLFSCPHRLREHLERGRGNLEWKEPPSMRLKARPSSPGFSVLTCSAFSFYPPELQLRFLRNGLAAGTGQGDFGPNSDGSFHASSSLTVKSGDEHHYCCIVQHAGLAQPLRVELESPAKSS
T19 sequence (P61769 21-119 limits assumed, chain 2 of 2): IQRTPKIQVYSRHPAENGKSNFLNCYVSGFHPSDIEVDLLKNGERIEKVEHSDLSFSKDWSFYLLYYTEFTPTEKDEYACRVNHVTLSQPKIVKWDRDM
T9 sequence (Q9NZQ7 19-238 limits assumed): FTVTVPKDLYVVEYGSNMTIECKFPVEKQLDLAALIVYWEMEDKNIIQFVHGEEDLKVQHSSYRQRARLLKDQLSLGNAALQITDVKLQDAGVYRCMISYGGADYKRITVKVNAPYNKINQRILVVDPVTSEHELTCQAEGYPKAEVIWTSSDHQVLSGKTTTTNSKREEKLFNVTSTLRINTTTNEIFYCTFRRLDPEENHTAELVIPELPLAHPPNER
T7 sequence (P31041 20-149 limits assumed): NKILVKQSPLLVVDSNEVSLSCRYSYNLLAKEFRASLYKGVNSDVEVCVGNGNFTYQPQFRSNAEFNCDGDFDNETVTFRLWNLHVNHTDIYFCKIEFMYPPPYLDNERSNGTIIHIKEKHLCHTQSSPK
T3 sequence (P12314 16-288 limits assumed): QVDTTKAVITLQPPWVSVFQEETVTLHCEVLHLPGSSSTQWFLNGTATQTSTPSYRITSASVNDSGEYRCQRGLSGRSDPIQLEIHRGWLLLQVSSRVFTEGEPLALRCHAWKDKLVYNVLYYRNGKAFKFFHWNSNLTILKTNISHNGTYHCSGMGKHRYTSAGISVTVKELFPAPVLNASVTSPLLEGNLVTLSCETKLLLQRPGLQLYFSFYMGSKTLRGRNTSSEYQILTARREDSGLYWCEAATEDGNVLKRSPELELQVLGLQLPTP
T18 sequence (P08637 17-208 F176V limits assumed): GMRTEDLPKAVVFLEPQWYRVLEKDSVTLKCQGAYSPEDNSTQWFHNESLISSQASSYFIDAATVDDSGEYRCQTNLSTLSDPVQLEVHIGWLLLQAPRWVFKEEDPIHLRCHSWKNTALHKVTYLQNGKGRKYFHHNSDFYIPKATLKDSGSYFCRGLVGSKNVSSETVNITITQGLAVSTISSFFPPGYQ
Sequence of PD-L1 on engineered CHO-K1 artificial Antigen Presenting Cells (aAPC) (Q9NZQ7 19-290 limits assumed, change not shown): as the sequence (Q9NZQ7 19-290) above
T10 sequence (G7PSE7 entry or part of it): as the sequence (Q9NZQ7 19-238 limits assumed) above, with A33T, A34S, S62N, R68Q, Q82R, F173L, T185A, T192I, H215L counted along it
T15 sequence (O75015 17-200 N65S limits assumed): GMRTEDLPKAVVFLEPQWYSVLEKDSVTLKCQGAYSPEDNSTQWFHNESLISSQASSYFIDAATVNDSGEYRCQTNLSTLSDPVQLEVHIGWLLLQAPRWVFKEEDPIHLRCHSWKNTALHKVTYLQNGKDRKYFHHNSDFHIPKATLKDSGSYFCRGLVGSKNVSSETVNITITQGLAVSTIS
T8 sequence (Q9EP73 19-238 limits assumed): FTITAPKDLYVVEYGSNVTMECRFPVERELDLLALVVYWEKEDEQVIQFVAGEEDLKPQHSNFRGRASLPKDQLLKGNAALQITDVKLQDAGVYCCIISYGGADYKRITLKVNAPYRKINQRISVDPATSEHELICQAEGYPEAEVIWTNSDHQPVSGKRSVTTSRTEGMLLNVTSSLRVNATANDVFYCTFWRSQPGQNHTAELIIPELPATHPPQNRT
T14 sequence (P08637 17-208 limits assumed): as the sequence (P08637 17-208 F176V limits assumed) above, with V160F counted along it

B1: S79 mAb (antibody, V domains shown)
VH: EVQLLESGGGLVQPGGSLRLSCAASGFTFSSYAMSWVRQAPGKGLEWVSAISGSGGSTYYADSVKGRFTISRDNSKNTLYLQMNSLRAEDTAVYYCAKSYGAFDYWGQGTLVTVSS
VL: QSALTQPASVSGSPGQSITISCTGTSSDVFRPPLVSWYQQHPGKAPKLMIYFASLRPSGVSNRFSGSKSGNTASLTISGLQAEDEADYYCSSWDHTGDGHVFGGGTKLTVL
notes: also called bivalent PD-L1 mAb based on the anti-PD-L1 arm S79
With B1 the “EC50 (read off the curve): RLU in the PD-1/PD-L1 blockade bioassay (blocked partner m28)” value [1] was ~0.02 µg/mL and the “EC50 (read off the curve)” value [2] was ~0.6 µg/mL.

B2: AI3S79/N (bispecific antibody, human IgG1, kappa, lambda, L234A L235A)
heavy: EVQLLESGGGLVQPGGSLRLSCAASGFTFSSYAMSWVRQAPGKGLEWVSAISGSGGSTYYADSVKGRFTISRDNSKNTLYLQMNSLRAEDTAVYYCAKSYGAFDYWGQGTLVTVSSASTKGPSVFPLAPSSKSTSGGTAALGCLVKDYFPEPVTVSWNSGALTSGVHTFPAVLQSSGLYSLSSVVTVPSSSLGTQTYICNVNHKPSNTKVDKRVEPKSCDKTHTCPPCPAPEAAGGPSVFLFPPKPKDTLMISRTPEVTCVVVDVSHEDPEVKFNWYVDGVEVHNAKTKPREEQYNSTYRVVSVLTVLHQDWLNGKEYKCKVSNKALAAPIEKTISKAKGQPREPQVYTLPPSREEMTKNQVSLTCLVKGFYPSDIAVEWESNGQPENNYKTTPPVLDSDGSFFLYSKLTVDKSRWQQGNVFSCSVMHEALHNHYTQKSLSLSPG
light 1: not shown
light 2: QSALTQPASVSGSPGQSITISCTGTSSDVFRPPLVSWYQQHPGKAPKLMIYFASLRPSGVSNRFSGSKSGNTASLTISGLQAEDEADYYCSSWDHTGDGHVFGGGTKLTVLGQPKAAPSVTLFPPSSEELQANKATLVCLISDFYPGAVTVAWKADSSPVKAGVETTTPSKQSNNKYAASSYLSLTPEQWKSHRSYSCQVTHEGSTVEKTVAPTECS
notes: also called PD-L1xCD28 bsAb; PD-L1xCD28 κλ body
In the case of B2, the Kd (cynomolgus CD28) is reported as ~54 nM, the Kd (human CD64) is reported as 804 nM and the binding result (mouse CD16) is reported as “no binding (tested: highest tested concentration: 2000 nM)”. For the same binder, the binding result (mouse CD32b) was “no binding (tested: highest tested concentration: 2000 nM)”, the binding result (mouse CD64) was “no binding (tested: highest tested concentration: 2000 nM)” and the “EC50 (read off the curve)” value [2] was ~0.9 µg/mL. The Kd (mouse CD28) was 11100 nM, the Kd (mouse PD-L1) was 0.79 nM and the Kd (human PD-L1) was 0.3 nM. The Kd (cynomolgus PD-L1) was 1.8 nM, the Kd (human CD28) was 54 nM and the binding result (cynomolgus CD16) was “no binding (tested: highest tested concentration: 2000 nM)”. B2: no binding (tested: highest tested concentration: 2000 nM) (human CD32a R167); no binding (tested: highest tested concentration: 2000 nM) (human CD16a F158); no binding (tested: highest tested concentration: 2000 nM) (human CD16b NA2). B2: no binding (tested: highest tested concentration: 2000 nM) (human CD32a H167); no binding (tested: highest tested concentration: 2000 nM) (human CD32b); no binding (tested: highest tested concentration: 2000 nM) (human CD16a V158). It also gave a Kd [3] of 7.1 nM, a Kd [4] of 8.6 nM and a Kd [5] of 0.06 nM.
